This passage reports leptin uptake in a liver cell line (BPRCL), gOBG3 against OBG3 results from patent EP1248849B1.

The target in the assay is mouse LSR (mouse) (UniProt Q99KG5). Nature of the assay: cell-based or functional assay.
UniProt Q99KG5, sequence (Q99KG5 36-594): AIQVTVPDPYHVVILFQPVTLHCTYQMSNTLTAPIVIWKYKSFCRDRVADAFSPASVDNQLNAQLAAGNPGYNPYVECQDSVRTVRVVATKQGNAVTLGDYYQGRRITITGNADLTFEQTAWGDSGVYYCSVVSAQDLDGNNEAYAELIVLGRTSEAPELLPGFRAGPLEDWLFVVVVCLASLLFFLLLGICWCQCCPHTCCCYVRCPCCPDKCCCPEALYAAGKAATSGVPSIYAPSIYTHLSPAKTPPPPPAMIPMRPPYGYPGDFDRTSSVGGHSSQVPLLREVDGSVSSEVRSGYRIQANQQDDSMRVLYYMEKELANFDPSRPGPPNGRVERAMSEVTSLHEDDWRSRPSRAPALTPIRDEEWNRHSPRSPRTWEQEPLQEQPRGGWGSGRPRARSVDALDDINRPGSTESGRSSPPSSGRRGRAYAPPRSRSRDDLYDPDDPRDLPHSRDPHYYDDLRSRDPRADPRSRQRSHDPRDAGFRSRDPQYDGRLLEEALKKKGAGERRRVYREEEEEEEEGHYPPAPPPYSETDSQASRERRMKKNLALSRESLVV

The substance “125I-mouse leptin (from UniProt P41160 22-167) (ligand)” gave a leptin uptake in a liver cell line (BPRCL), gOBG3 against OBG3 above 30%.
